From article PMC6943190 come the findings set out here.

The target of assay [1] is C403-SecA (Escherichia coli) (UniProt P10408). The assay can be described thus: cross-linking.
Assay [2] concerns the target C11+C661-SecA (Escherichia coli) (UniProt P10408). The assay is described as follows: cross-linking.

Substance “C403-SecA (from UniProt P10408 1-901) (enzyme)” registered a stoichiometry N in assay [1] of 2.
The substance “C11+C661-SecA (from UniProt P10408 1-901) (enzyme)” showed a stoichiometry N in assay [2] of 2.

Usually stoichiometry N stands for the number of molecules, sites or subunits per partner or assembly.
